Results taken from patent US20200113969.

Key:
[1] = test system: deflamin isolated from Lupinus albus seeds
[2] = target: peak 3 of the RP-HPLC fractionation of L. albus deflamin (UniProt F5B8W8)
[3] = test system: peak 1 of the RP-HPLC fractionation of L. albus deflamin
[4] = test system: peak 4 of the RP-HPLC fractionation of L. albus deflamin
[5] = target: peak 2 of the RP-HPLC fractionation of L. albus deflamin (UniProt F5B8W8)
Chain of peak 2 of the RP-HPLC fractionation of L. albus deflamin (F5B8W8 whole entry, looked up): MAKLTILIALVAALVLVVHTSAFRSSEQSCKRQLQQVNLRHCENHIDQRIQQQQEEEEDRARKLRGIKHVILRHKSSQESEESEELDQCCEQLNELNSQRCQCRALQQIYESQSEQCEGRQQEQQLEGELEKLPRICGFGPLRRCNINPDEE

Chain of MMP-9 (commercial enzyme, Sigma) (chain, as listed by the source): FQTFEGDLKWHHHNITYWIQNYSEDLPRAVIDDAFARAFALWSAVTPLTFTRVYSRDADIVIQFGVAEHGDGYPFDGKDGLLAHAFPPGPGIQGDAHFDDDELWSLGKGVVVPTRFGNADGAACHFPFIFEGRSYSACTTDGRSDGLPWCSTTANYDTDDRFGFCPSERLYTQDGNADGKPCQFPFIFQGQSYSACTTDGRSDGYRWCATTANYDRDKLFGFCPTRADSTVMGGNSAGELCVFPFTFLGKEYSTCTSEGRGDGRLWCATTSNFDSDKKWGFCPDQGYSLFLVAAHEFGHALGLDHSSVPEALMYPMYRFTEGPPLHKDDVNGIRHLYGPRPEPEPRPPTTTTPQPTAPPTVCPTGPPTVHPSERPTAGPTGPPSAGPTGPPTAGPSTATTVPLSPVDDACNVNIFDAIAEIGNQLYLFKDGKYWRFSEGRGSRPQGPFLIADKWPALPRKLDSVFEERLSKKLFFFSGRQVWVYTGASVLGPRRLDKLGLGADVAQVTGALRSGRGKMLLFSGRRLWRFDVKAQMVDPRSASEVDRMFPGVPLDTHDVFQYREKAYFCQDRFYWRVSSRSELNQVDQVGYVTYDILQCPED
Chain of deflamin isolated from Lupinus albus seeds (chain, as listed by the source, chain 1 of 2): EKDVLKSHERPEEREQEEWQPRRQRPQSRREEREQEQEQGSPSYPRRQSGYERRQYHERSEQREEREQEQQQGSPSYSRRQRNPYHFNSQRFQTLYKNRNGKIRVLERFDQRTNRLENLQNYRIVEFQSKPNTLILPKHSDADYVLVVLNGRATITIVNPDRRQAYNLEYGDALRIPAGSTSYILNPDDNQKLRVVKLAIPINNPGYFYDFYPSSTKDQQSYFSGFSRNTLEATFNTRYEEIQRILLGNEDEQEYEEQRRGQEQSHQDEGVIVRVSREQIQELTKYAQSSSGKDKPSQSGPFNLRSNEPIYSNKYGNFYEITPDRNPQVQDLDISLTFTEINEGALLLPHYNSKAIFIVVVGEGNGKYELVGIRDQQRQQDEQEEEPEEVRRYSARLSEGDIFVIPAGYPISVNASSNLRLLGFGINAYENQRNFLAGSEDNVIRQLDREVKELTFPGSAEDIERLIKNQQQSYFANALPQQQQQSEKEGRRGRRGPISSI
Chain of deflamin isolated from Lupinus albus seeds (chain, as listed by the source, chain 2 of 2): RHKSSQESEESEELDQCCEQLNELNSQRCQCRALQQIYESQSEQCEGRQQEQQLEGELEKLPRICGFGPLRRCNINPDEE
Chain of peak 3 of the RP-HPLC fractionation of L. albus deflamin (F5B8W8 whole entry, looked up): as the sequence (F5B8W8 whole entry, looked up) above

MMP-9 (commercial enzyme, Sigma)
MMP-9 proteolytic activity on DQ-gelatin, deflamin at 50 µg/mL [1]: the highest inhibition (P<0.05) detected for deflamin, which induced a reduction greater than 80% of MMP-9 activity | MMP-9 proteolytic activity, DQ fluorogenic assay, 25 µg/ml [2]: all the selected peaks presented some degree of MMP inhibition and also inhibited invasion, but peak 3 was the one with the highest observed activities | MMP-9 proteolytic activity, DQ fluorogenic assay, 25 µg/ml [3]: all the selected peaks presented some degree of MMP inhibition | MMP-9 proteolytic activity, DQ fluorogenic assay, 25 µg/ml [4]: all the selected peaks presented some degree of MMP inhibition | MMP-9 proteolytic activity, DQ fluorogenic assay, 25 µg/ml [5]: all the selected peaks presented some degree of MMP inhibition
